Results from article doi:10.1101/2021.03.22.436414 (bioRxiv, 2021).

Biological target: the molecule itself
Assay: TIRF microscopy of filament lengths at steady state

B1: Recombinant S. cerevisiae septin octamer capped with Cdc11-SNAP (Cdc11-Cdc12-Cdc3-Cdc10-Cdc10-Cdc3-Cdc12-Cdc11) (complex)
chain 1: MSGIIDASSALRKRKHLKRGITFTVMIVGQSGSGRSTFINTLCGQQVVDTSTTILLPTDTSTEIDLQLREETVELEDDEGVKIQLNIIDTPGFGDSLDNSPSFEIISDYIRHQYDEILLEESRVRRNPRFKDGRVHCCLYLINPTGHGLKEIDVEFIRQLGSLVNIIPVISKSDSLTRDELKLNKKLIMEDIDRWNLPIYNFPFDEDEISDEDYETNMYLRTLLPFAIIGSNEVYEMGGDVGTIRGRKYPWGILDVEDSSISDFVILRNALLISHLHDLKNYTHEILYERYRTEALSGESVAAESIRPNLTKLNGSSSSSTTTRRNTNPFKQSNNINNDVLNPASDMHGQSTGENNETYMTREEQIRLEEERLKAFEERVQQELLLKRQELLQREKELREIEARLEKEAKIKQEE
chain 2: MSAATATAAPVPPPVGISNLPNQRYKIVNEEGGTFTVMLCGESGLGKTTFINTLFQTVLKRADGQQHRQEPIRKTVEIDITRALLEEKHFELRVNVIDTPGFGDNVNNNKAWQPLVDFIDDQHDSYMRQEQQPYRTKKFDLRVHAVLYFIRPTGHGLKPIDIETMKRLSTRANLIPVIAKADTLTAQELQQFKSRIRQVIEAQEIRIFTPPLDADSKEDAKSGSNPDSAAVEHARQLIEAMPFAIVGSEKKFDNGQGTQVVARKYPWGLVEIENDSHCDFRKLRALLLRTYLLDLISTTQEMHYETYRRLRLEGHENTGEGNEDFTLPAIAPARKLSHNPRYKEEENALKKYFTDQVKAEEQRFRQWEQNIVNERIRLNGDLEEIQGKVKKLEEQVKSLQVKKSHLK
chain 3: MSLKEEQVSIKQDPEQEERQHDQFNDVQIKQESQDHDGVDSQYTNGTQNDDSERFEAAESDVKVEPGLGMGITSSQSEKGQVLPDQPEIKFIRRQINGYVGFANLPKQWHRRSIKNGFSFNLLCVGPDGIGKTTLMKTLFNNDDIEANLVKDYEEELANDQEEEEGQGEGHENQSQEQRHKVKIKSYESVIEENGVKLNLNVIDTEGFGDFLNNDQKSWDPIIKEIDSRFDQYLDAENKINRHSINDKRIHACLYFIEPTGHYLKPLDLKFMQSVYEKCNLIPVIAKSDILTDEEILSFKKTIMNQLIQSNIELFKPPIYSNDDAENSHLSERLFSSLPYAVIGSNDIVENYSGNQVRGRSYPWGVIEVDNDNHSDFNLLKNLLIKQFMEELKERTSKILYENYRSSKLAKLGIKQDNSVFKEFDPISKQQEEKTLHEAKLAKLEIEMKTVFQQKVSEKEKKLQKSETELFARHKEMKEKLTKQLKALEDKKKQLELSINSASPNVNHSPVPTKKKGFLR
chain 4: MDPLSSVQPASYVGFDTITNQIEHRLLKKGFQFNIMVVGQSGLGKSTLINTLFASHLIDSATGDDISALPVTKTTEMKISTHTLVEDRVRLNINVIDTPGFGDFIDNSKAWEPIVKYIKEQHSQYLRKELTAQRERFITDTRVHAILYFLQPNGKELSRLDVEALKRLTEIANVIPVIGKSDTLTLDERTEFRELIQNEFEKYNFKIYPYDSEELTDEELELNRSVRSIIPFAVVGSENEIEINGETFRGRKTRWSAINVEDINQCDFVYLREFLIRTHLQDLIETTSYIHYEGFRARQLIALKENANSRSSAHMSSNAIQR
modifications: Alexafluor488 dye on the SNAP tag
With B1 as the protein, how does the Kd read?
The Kd was 84.5 ± 8.5 nM.
